# Data taken from PMC4440780, “Turning Escherichia coli into a Frataxin-Dependent Organism” (PLoS Genetics, 2015).
# Legend:
# [1] = molecular target: T1, IscU_(I108M)-(his)6, E. coli IscU with the Ile108Met substitution (E. coli, UniProt P0ACD4 1-128, I108M); test: co-elution on anion exchange chromatography (QFF); purified His-tagged proteins mixed anaerobically 1:1:1 (144 uM each) for 40 min with 4-fold excess Fe(SO4)2(NH4)2, 10-fold excess L-cysteine, 5 mM DTT in 50 mM Tris-HCl pH 8; loaded on a 1-mL QFF column, eluted with a gradient to 1 M NaCl; fractions analysed by SDS-PAGE; the single proteins elute at lower salt; settings: both partners purified
# T1 construct: IscU, Fe-S cluster scaffold protein of E. coli K-12 MG1655; coding region amplified from pIscUIM and cloned NdeI/HindIII into pET21a+; the methods say the proteins were mixed with Fe(SO4)2(NH4)2, L-cysteine and DTT; By gel filtration it exists mainly as a dimer; also called IscUIM; His-tagged IscUIM; not shown: His6, C-terminal, kept
# [2] = molecular target: T2, (his)6-IscS, E. coli cysteine desulfurase IscS (E. coli, UniProt P0A6B7 1-404); test: as above; settings: both partners purified
# T2 construct: IscS, cysteine desulfurase of E. coli; not shown: His6, N-terminal, kept
binder,measurement,setting,value
"CyaY-(his)6, E. coli frataxin homolog CyaY (natural protein, UniProt P27838 1-106, looked up, CyaY, frataxin homolog of E. coli; not shown: His6, C-terminal, kept) MNDSEFHRLADQLWLTIEERLDDWDGDSDIDCEINGGVLTITFENGSKIIINRQEPLHQVWLATKQGGYHFDLKGDEWICDRSGETFWDLLEQAATQQAGETVSFR",binding result,[1],binds
same,binding result,[2],binds
